Test results published in article PMC10120035, “HY5 functions as a systemic signal by integrating BRC1-dependent hormone signaling in tomato bud outgrowth”.

B1: LOG4-A WT (dsDNA)
DNA 1: AGTAATCCTATTAGAAAAATGGGCCATGGACCTTGCCTTACCTAC
DNA 2: GTAGGTAAGGCAAGGTCCATGGCCCATTTTTCTAATAGGATTACT
B2: LOG4-A mut (dsDNA)
DNA 1: AGTAATCCTATTAGAAAAATAAAAAATGGACCTTGCCTTACCTAC
DNA 2: GTAGGTAAGGCAAGGTCCATTTTTTATTTTTCTAATAGGATTACT
B3: GA2ox4-B WT (dsDNA)
DNA 1: TCCCAAATTTTCGAATTATTAGGGGACCATTTTTTTTAAAAAAA
DNA 2: TTTTTTTAAAAAAAATGGTCCCCTAATAATTCGAAAATTTGGGA
B4: GA2ox4-B mut (dsDNA)
DNA 1: TCCCAAATTTTCGAATTATTAGAAAAAAATTTTTTTTAAAAAAA
DNA 2: TTTTTTTAAAAAAAATTTTTTTCTAATAATTCGAAAATTTGGGA
B5: GA2ox5-A WT (dsDNA)
DNA 1: CAATTGTTTTGTGGGGAAAGGGTGCCCTTTCTTTTTTATTCCAA
DNA 2: TTGGAATAAAAAAGAAAGGGCACCCTTTCCCCACAAAACAATTG
B6: GA2ox5-A mut (dsDNA)
DNA 1: CAATTGTTTTGTGGGGAAAGAATGAACTTTCTTTTTTATTCCAA
DNA 2: TTGGAATAAAAAAGAAAGTTCATTCTTTCCCCACAAAACAATTG
B7: CKX7-A WT (dsDNA)
DNA 1: CCCCGACATCTAAAGAGTGGGCCCAAATATCAGATAAATCAAGAACA
DNA 2: TGTTCTTGATTTATCTGATATTTGGGCCCACTCTTTAGATGTCGGGG
B8: CKX7-A mut (dsDNA)
DNA 1: CCCCGACATCTAAAGAGTAAACAAAAATATCAGATAAATCAAGAACA
DNA 2: TGTTCTTGATTTATCTGATATTTTTGTTTACTCTTTAGATGTCGGGG

Target: BRC1 (His-BRC1) (Solanum lycopersicum (tomato), UniProt A0A3Q7HTP5 1-406)
Experiment: EMSA; Light Shift Chemiluminescent EMSA kit (Thermo 20148) per manufacturer; buffer, salt, pH and temperature not stated
Conditions: protein: recombinant; tags: His (pET-32a); chain copies: 2; label: 3' biotin (probe); blunt

Chain of BRC1 (His-BRC1) (A0A3Q7HTP5 entry or part of it): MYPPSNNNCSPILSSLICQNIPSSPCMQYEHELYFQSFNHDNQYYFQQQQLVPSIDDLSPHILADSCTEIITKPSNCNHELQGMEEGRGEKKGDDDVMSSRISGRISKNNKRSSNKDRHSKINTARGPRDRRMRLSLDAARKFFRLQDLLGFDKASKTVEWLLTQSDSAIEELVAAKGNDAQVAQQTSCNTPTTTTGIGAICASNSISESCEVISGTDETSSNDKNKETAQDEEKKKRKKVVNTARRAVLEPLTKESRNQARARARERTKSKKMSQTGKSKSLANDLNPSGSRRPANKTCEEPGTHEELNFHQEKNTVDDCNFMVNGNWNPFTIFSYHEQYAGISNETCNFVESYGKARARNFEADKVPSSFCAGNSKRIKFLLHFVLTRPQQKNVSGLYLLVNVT

| Binder | binding result |
| --- | --- |
| B1 | binds |
| B2 | no binding |
| B3 | binds |
| B4 | no binding |
| B5 | binds |
| B6 | no binding |
| B7 | binds |
| B8 | no binding |
